In article PMC11146590:

Biological target: Oct4 C48S (purified) (Mus musculus, UniProt P20263 1-352, C178S)
Test: EMSA

Sequence of Oct4 C48S (purified) (P20263 whole entry C178S): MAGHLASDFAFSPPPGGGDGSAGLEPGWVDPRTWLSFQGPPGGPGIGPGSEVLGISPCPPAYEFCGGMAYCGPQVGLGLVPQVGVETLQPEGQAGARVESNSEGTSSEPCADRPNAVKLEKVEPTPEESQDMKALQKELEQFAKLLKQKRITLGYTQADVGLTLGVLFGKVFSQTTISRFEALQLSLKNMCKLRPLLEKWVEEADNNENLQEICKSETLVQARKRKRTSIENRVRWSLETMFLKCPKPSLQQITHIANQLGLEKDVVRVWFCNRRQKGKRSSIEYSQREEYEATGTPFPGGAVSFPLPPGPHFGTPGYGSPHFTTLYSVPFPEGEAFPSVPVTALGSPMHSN

B1: wild-type octamer probe (dsDNA)
DNA 1: TGTCGAATGCAAATCACT
DNA 2: AGTGATTTGCATTCGACA
binding result: binds
